This note sets out measurements from patent US20150087807A1.

The test concerns the target synthetic mimetic peptide m1E41920. Briefly: indirect ELISA, m1E41920 peptide coated, nonlinear regression (GraphPad Prism). A general note: In an ELISA, binding on a coated surface is turned into a signal by an enzyme label.

In general, EC50 refers to the concentration giving half of the maximal effect. Read a low EC50 as greater potency.

B1: humanized single chain variable fragment of 1E4 (huscFv1E4) (scFv)
scFv: QCLVESGGGVVQPGRSLRLSCAASGFTFSNYRVHWVRQAPGKGLEWIAVIAVKSDNYGANYAESVKGRFTISRDNSKNTLYLQMNSLRAEDTAVYYCRSTVVVMGDYFAMDYWGQGTSVTVSSGGGGSGGGGSGGGGSDIVLTQSPAFLSVTPGEKVTITCRASQNIGTYIHWYQQKPDQAPKLLIKYASESVSGVPSRFSGSGSGTDFTFTISSLEAEDAATYYCQQSNTWPYTFGGGTKLEIKRADAAPTVSKLAAALEHHHHHH
Molecule B1 registered a concentration for a half-maximal effect (EC50) of 62.3 nM.

B2: recombinant murine single chain variable fragment of 1E4 (muscFv1E4) (scFv)
scFv: ECLEESGGGLVRPGNSLKLSCVTSGFTFSNYRVHWLRQPPGKRLEWIAVIAVKSDNYGANYAESVKGRFTISRDDSKSSVYLQMNRLREEDTATYYCRSTVVVMGDYFAMDYWGQGTSVTVSSGGGGSGGGGSGGGGSDIELTQSPAILSVSPGERVSFSCRASQNIGTYIHWYQQRTNGSPRLLIKYASESVSGIPSRFSGRGSGTDFTLSISSVESEDIADYYCQQSNTWPYTFGGGTKLEIKRADAAPTVSKLAAALEHHHHHH
As to B2, the EC50 was 73.1 nM.
